Test results published in patent publication US20250170267A1, “ANTIBODY-DRUG CONJUGATE PRECURSOR AND INTERMEDIATE FOR SYNTHESIS THEREOF” (UBE Corporation, priority 2022, published 2025).

Key:
human liver Cathepsin B = target: T1, human liver Cathepsin B (Homo sapiens, UniProt P07858); assay: Metabolism test using human liver Cathepsin B; type: in vitro ADME; conditions: 37° C., 24 hours, released drug, LC-MS/MS
T1 construct: human liver Cathepsin B (manufactured by Sigma-Aldrich Co. LLC, Cat No. C8571 25 μg/vial); purchased Sigma-Aldrich Co. LLC C8571; host or cells: human liver
Protocol: To human liver Cathepsin B (manufactured by Sigma-Aldrich Co. LLC, Cat No. C8571 25 μg/vial)(corresponding to 400 Unit/mL)(5 μL), X10 Catabolic Buffer (manufactured by SEKISUI-Xenotech, LLC., K5200)(10 μL), 2.5 mM Bovine Serum Albumin (manufactured by FUJIFILM Wako Pure Chemical Corporation, Cat No. 012-15093)(5 μL), and distilled water (manufactured by FUJIFILM Wako Pure Chemical Corporation, for HPLC)(55 μL) was added 1.2 μM test compound (antibody-drug conjugate prepared in ADC Production examples)(25 μL) dissolved in PBS to prepare a reaction solution. After the reaction solution was incubated at 37° C. for 24 hours, “an antitumor drug molecule or an analog thereof, or a derivative thereof” released from the antibody-drug conjugate into the reaction solution was quantified by LC-MS/MS (high performance liquid chromatography/mass spectrometer system) under the following conditions. LC-MS/MS analysis conditions
(§1) LC: LC20 or LC30 HPLC system manufactured by Shimadzu Corporation
(§2) Column: Phenomenex Kinetex C18 (50×2.1 mm, 2.6 μm)
(§3) Column temperature: 40° C.
(§4) Mobile phase A: 0.1% aqueous solution of formic acid, Mobile phase B: 0.1% solution of formic acid in a mixture of 50% acetonitrile/methanol
(§5) Mode: Positive or Negative
(§6) The release rate (%) of drug was calculated by the following equation.

[1] = Retention time in HPLC (index of hydrophilicity); type: physicochemical; conditions: Table 6 (eribulin precursors); BEH C18, 0.1% formic acid/acetonitrile gradient, 40° C.
Protocol: As an index of hydrophilicity of the Examples, the retention time (RT) in HPLC analysis was measured, and compared.
Device: LCMS2020 system Shimadzu Corporation
Column: Acquity UPLC (registered trademark) BEH C18 (2.1×50 mm, 1.7 μm)_Waters
Eluent: Solution A: 0.1% aqueous solution of formic acid, Solution B: 0.1% solution of formic acid in acetonitrile

[2] = Pharmacokinetic test (serum trastuzumab residual rate); type: in vivo; conditions: female BALB/c mouse, intravenous; 3 days vs 5 minutes after administration
Text: After a prescribed time period, the blood was collected from the jugular vein or abdominal vein, and centrifuged to prepare a serum. The resulting serum was cryopreserved until the measurement.

human liver lysosome = assay: Metabolism test using human liver lysosomal fraction; type: in vitro ADME; conditions: 37° C., 24 hours, released drug, LC-MS/MS
Protocol: To a reaction composition solution (X10 Catabolic Buffer (manufactured by SEKISUI-Xenotech, LLC., K5200))(60 μL) in which human liver lysosome (manufactured by SEKISUI-Xenotech, LLC., Cat No. H610.L 2.5 mg/mL)(corresponding to 0.125 mg of protein) was suspended and distilled water (manufactured by FUJIFILM Wako Pure Chemical Corporation, for HPLC)(10 μL) was added 1.2 μM test compound (antibody-drug conjugate produced in ADC Production examples)(25 μL) dissolved in PBS to prepare a reaction solution. After the reaction solution was incubated at 37° C. for 24 hours, “an antitumor drug molecule or an analog thereof, or a derivative thereof” released from the antibody-drug conjugate into the reaction solution was quantified by LC-MS/MS (high performance liquid chromatography/mass spectrometer system) under the following conditions. LC-MS/MS analysis conditions
as §1, §2, §3, §4, §5, §6

Compound | Release rate (%) of drug from ADC (human liver Cathepsin B) | Retention time in HPLC measurement [1] | Serum trastuzumab residual rate after 3 days from administration (%) [2] | Release rate (%) of drug from ADC (human liver lysosome)
C=C1C[C@@H]2CC[C@@]34C[C@H]5O[C@H]6[C@@H](O3)[C@H]3O[C@H](CC[C@@H]3O[C@H]6[C@H]5O4)CC(=O)C[C@@H]3[C@@H](OC)[C@@H](C[C@H](O)CNC(=O)OCc4ccc(NC(=O)[C@H](CCCNC(N)=O)NC(=O)[C@@H](NC(=O)[C@H](CC(=O)N[C@H]5CCOC5=O)NC(=O)CN(C)CCNC(=O)CCOCCOCCOCCOCCNC(=O)[C@H](CNC(=O)CCP(=O)(O)O)N5C(=O)C=CC5=O)C(C)C)cc4)O[C@H]3C[C@H]3O[C@@H](CC[C@@H]1O2)C[C@@H](C)C3=C [Example 16] | 62% | 0.97 min | 64% | 72%
C=C1C[C@@H]2CC[C@@]34C[C@H]5O[C@H]6[C@@H](O3)[C@H]3O[C@H](CC[C@@H]3O[C@H]6[C@H]5O4)CC(=O)C[C@@H]3[C@@H](OC)[C@@H](C[C@H](O)CNC(=O)OCc4ccc(NC(=O)[C@H](CCCNC(N)=O)NC(=O)[C@@H](NC(=O)[C@H](CC(=O)N[C@H]5CCOC5=O)NC(=O)[C@H](CCCCN(C)C)NC(=O)CCOCCOCCOCCOCCNC(=O)[C@H](CNC(=O)CCP(=O)(O)O)N5C(=O)C=CC5=O)C(C)C)cc4)O[C@H]3C[C@H]3O[C@@H](CC[C@@H]1O2)C[C@@H](C)C3=C [Example 18] | 64% | 0.96 min | 73% | 75%
